Source: patent publication US20140045756A1

Assays:
[1] = biological target: TNFR1 immobilized on the SPR sensor chip (channel 3) (UniProt P19438); assay: SPR (FastStep kinetic assay)
[2] = biological target: TNFR2 immobilized on the SPR sensor chip (channel 1) (UniProt P20333); assay: SPR (FastStep kinetic assay); settings: ligand
[3] = biological target: TNFR2 immobilized on the SPR sensor chip (channel 1) (UniProt P20333); assay: SPR (FastStep kinetic assay); right panel is TNFR2; key printed as TNFR1; settings: designed binder

Sequence of Recombinant human PGRN (rhPGRN) (P28799 18-593): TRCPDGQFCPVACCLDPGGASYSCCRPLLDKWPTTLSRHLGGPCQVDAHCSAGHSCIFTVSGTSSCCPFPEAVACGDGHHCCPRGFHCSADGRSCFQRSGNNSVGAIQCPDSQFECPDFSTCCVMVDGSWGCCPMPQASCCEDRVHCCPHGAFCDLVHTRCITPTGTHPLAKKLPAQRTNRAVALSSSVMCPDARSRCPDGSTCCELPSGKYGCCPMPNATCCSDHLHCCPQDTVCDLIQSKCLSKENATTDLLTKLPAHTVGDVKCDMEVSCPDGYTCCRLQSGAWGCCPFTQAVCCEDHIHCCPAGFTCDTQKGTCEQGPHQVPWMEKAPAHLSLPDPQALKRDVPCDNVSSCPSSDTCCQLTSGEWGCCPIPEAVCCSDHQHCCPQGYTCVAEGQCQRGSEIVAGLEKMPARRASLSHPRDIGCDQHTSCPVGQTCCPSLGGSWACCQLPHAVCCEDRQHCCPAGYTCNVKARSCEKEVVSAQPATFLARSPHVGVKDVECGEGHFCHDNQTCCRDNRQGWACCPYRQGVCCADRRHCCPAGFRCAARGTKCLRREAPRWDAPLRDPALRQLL
Sequence of TNFR1 immobilized on the SPR sensor chip (channel 3) (P19438 30-211): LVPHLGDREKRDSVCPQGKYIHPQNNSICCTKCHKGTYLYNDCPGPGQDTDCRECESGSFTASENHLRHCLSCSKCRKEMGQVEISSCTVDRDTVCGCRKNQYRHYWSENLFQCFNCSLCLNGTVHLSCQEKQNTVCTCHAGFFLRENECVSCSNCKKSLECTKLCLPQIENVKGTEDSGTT

Substance	Kd ([1]; ligand)	Kd [2]	Kd ([1]; designed binder)	Kd [3]
Recombinant human PGRN (rhPGRN) (from UniProt P28799 18-593)	0.00177 µM	0.00152 µM		
Atsttrin-α1 (Antagonist of TNF/TNFR Signaling via Targeting to TNF Receptors-α1), recombinant			0.142 µM	0.0902 µM
